One substance from PMC2118910 can be followed below.

What all share (assay): cell-cell adhesion assay
Assay [1] concerns the target human CD8 alpha mutant M1 (human).
Assay [2] concerns the target human CD8 alpha mutant M10 (human).
For assay [3], the target named is human CD8 alpha mutant M2 (human) (UniProt P01732).
The target in assay [4] is human CD8 alpha mutant M3 (human).
Assay [5] has as its target human CD8 alpha mutant M4 (human) (UniProt P01732).
The target in assay [6] is human CD8 alpha mutant M5 (human) (UniProt P01732).
Assay [7] deals with human CD8 alpha mutant M6 (human).
In assay [8] the target is human CD8 alpha mutant M7 (human).
The target of assay [9] is human CD8 alpha mutant M8 (human) (UniProt P01732).
Assay [10] concerns the target human CD8 alpha mutant M9 (human) (UniProt P01732).
Assay [11] addresses mouse CD8 alpha (Lyt-2) (mouse) (UniProt P01731).
Sequence of UniProt P01731 (P01731 28-247): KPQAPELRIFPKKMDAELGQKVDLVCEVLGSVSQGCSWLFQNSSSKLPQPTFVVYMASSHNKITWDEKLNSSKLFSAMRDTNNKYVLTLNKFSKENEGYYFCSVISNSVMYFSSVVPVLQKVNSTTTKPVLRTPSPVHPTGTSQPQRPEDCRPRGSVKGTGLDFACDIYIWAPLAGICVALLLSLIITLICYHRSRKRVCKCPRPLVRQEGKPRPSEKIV

Regarding “HLA class I on the human B lymphoblastoid cell line UC”, the percent binding relative to wild type in assay [1] is 15.7%; in assay [2] it was 42.6%; in [3], 1.7%; in assay [4] it was 13.5%; in assay [5], > 80%; in assay [6], 11%. In addition, the percent binding relative to wild type in [7] was 49.1%; in assay [8], 31.3%; in [9], > 80%; in [10], 56.9%; in assay [11] it was -0.6 to 5.8%.
